{
  "source": "paper PMC4709261",
  "about": "“Guanylate cyclase 1 relies on rhodopsin for intracellular stability and ciliary trafficking” (eLife, 2015)",
  "biological_target": "T1, retinal guanylate cyclase 1 (mouse (endogenous in retina), UniProt P52785 55-1108)",
  "T1 construct": "retinal guanylate cyclase 1 (GC-1), mouse, endogenous in the retina; Endogenous protein precipitated by the anti-GC-1 antibody 1S4 and detected by Western blotting; also called GC-1; RetGC1",
  "T1 sequence (looked up)": "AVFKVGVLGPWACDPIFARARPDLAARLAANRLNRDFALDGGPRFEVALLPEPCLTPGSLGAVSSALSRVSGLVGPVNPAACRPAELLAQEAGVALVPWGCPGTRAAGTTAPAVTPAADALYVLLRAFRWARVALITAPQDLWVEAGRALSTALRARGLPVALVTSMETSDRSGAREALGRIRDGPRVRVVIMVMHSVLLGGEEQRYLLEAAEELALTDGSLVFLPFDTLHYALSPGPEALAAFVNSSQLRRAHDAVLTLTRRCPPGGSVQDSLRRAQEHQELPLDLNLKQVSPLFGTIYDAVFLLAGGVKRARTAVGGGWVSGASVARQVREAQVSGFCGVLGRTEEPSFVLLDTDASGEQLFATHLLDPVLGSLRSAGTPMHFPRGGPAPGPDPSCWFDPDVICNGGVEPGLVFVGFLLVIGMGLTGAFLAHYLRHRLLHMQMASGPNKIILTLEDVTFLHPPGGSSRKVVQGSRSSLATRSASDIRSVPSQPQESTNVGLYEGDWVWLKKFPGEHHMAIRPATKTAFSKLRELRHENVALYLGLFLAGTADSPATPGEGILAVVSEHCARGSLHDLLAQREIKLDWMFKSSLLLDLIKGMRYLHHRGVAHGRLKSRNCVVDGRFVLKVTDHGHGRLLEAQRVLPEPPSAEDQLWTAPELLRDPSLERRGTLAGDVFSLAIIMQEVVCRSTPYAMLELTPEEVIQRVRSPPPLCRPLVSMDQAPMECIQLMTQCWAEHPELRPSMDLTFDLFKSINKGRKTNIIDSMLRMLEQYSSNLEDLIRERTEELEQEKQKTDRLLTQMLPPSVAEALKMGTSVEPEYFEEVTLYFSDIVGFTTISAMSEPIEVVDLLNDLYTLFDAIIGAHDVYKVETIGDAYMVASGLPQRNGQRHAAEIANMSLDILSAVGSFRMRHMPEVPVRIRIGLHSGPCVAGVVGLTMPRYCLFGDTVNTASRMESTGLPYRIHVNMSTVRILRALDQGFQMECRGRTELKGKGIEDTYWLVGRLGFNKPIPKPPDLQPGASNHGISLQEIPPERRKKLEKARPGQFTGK",
  "experiment": "co-IP; Rho+/- mouse retinal lysate; anti-GC-1 antibody 1S4 (0.2 μg), minimal amount (5 μl) of protein A/G magnetic beads; eluate analysed by Western blotting for GC-1 and rhodopsin; control: non-immune mouse IgG",
  "details": "partners not purified",
  "data": [
    {"binder": "rhodopsin (receptor, mouse (endogenous in retina), UniProt P15409 1-348, looked up, rhodopsin, mouse, endogenous in the retina; Endogenous protein precipitated by, or detected with, the anti-rhodopsin antibody 1D4) MNGTEGPNFYVPFSNVTGVVRSPFEQPQYYLAEPWQFSMLAAYMFLLIVLGFPINFLTLYVTVQHKKLRTPLNYILLNLAVADLFMVFGGFTTTLYTSLHGYFVFGPTGCNLEGFFATLGGEIALWSLVVLAIERYVVVCKPMSNFRFGENHAIMGVVFTWIMALACAAPPLVGWSRYIPEGMQCSCGIDYYTLKPEVNNESFVIYMFVVHFTIPMIVIFFCYGQLVFTVKEAAAQQQESATTQKAEKEVTRMVIIMVIFFLICWLPYASVAFYIFTHQGSNFGPIFMTLPAFFAKSSSIYNPVIYIMLNKQFRNCMLTTLCCGKNPLGDDDASATASKTETSQVAPA", "values": [
      {"measurement": "fold of rhodopsin precipitation with anti-GC-1 antibody over non-specific background with non-immune IgG", "result": 6.5, "unit": "fold"}
    ]}
  ]
}
